Positions count from the first letter of the chain named. Where two headings read alike, the source gives them in different places.
B1: humanized scFv 16-22-H05-sc02 (scFv)
scFv: MDIQMTQSPSSLSASVGDRVTIKCQASQSIFSGLAWYQQKPGKAPKLLIYGASKLASGVPSRFSGSGSGTEFTLTISGLQPADFATYYCQSYYYSSSSSDGSYAFGGGTKLTVLGGGGGSGGGGSGGGGSGGGGSEVQLVESGGGLVQPGGSLRLSCKASGIDFNNYGIGWVRQAPGKGLEWITYIYPGFAITNFANSVKGRFTISSDNSKNTVYLQMNSLRAEDTAVYYCARDPVYATSSGYFDLWGQGTLVTVSS
notes: also called 16-22-H05-sc02 (STR); structural graft
B2: humanized scFv 16-22-H05-sc04 (scFv)
scFv: B1 scFv with K23T
notes: also called 16-22-H05-sc04 (CDR/STR); domain shuffled variant

Experiments:
[1] = molecular target: T1, recombinant human TNFα (human, UniProt P01375 77-233); experiment: cell-based or functional assay
[2] = molecular target: T1, recombinant human TNFα; experiment: cell-based or functional assay; remark: listed apart in the source
[3] = molecular target: T1, recombinant human TNFα; experiment: cell-based or functional assay; remark: listed apart in the source
[4] = molecular target: recombinant Cynomolgus monkey TNFα (Cynomolgus monkey (Macaca fascicularis), UniProt P79337 77-233); experiment: cell-based or functional assay
[5] = molecular target: Rhesus monkey TNFα (Rhesus monkey (Macaca mulatta), UniProt P48094 77-233); experiment: cell-based or functional assay
[6] = molecular target: T1, recombinant human TNFα; experiment: inhibition ELISA, blocking of biotinylated TNFα binding to coated TNFRII-Fc
[7] = molecular target: T1, recombinant human TNFα; experiment: inhibition ELISA, blocking of biotinylated TNFα binding to coated TNFRI-Fc; relative to infliximab
[8] = molecular target: T1, recombinant human TNFα; experiment: inhibition ELISA, blocking of biotinylated TNFα binding to coated TNFRII-Fc; relative to infliximab
[9] = molecular target: T1, recombinant human TNFα; experiment: inhibition ELISA: biotinylated human TNFα pre-incubated with serially diluted scFv, binding of unblocked TNFα to coated TNFRII-Fc detected

T1 sequence (P01375 77-233 limits assumed): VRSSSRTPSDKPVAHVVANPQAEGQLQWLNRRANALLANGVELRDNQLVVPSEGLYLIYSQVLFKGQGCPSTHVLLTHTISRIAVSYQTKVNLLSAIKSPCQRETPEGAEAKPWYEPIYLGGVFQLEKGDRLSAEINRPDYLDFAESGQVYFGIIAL
Chain of recombinant Cynomolgus monkey TNFα (P79337 77-233 limits assumed): as the sequence (P01375 77-233 limits assumed) above, with L37V, R44T, T72N, R138L counted along it
Chain of Rhesus monkey TNFα (P48094 77-233 limits assumed): as the sequence (P01375 77-233 limits assumed) above, with R44T, T72N, R138L counted along it

Binder	L929 assay, rel. IC50 (IC50 infliximab / IC50 scFv, ng/mL) [1]	IC50 (read off the curve) (L929 assay, % growth) [2] [ng/mL]	IC50 (read off the curve) (L929 assay, % growth) [3] [ng/mL]	IC50 (read off the curve) (L929 assay, % growth) [4] [ng/mL]	IC50 (read off the curve) (L929 assay, % growth) [5] [ng/mL]	IC [ng] (head cut off; probably IC50 [ng/mL]) [6]	rel. IC50 (IC50 infliximab / IC50 scFv, ng/mL) [7]	rel. IC50 (IC50 infliximab / IC50 scFv, ng/mL) [8]	IC50 (read off the curve) [9] [ng/mL]
B1	13.1	~0.5	~0.6	~3	~3	20 ng (head cut off)	3.5	5.7	~20
B2	14.6	~0.5	~0.6	~3	~3	32 ng (head cut off)	2.8	3.5	~30

— US20230272059A1 (TILLOTTS PHARMA, published 2023)
